Laboratory results reported in paper PMC10957929.

Target: T1, GST-DRG9Nip (Oryza sativa ssp. japonica cv. Nipponbare) (UniProt Q69P58)
T1 sequence: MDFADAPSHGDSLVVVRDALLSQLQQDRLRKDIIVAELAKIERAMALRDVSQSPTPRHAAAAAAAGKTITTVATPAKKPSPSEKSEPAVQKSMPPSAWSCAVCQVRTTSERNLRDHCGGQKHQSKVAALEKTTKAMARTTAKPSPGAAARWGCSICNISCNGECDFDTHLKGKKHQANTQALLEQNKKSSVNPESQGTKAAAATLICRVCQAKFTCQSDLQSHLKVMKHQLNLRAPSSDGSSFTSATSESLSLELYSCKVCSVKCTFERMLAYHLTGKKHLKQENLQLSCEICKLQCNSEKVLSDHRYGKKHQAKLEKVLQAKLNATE
Assay: EMSA
Details: 20 mM Hepes pH 7.5, 20 mM KCl2 (so in the source), 1 mM MgCl2, 10 mM ZnCl2, 5 mM DTT, 10% glycerol, 0.1% NP-40, room temperature, 1 h; 6% native PAGE, 0.5x TBE

## GGGCUCAAAUUAAUUAGCCAGUGAAAAAUCAAAUUACAGAGUUGCUUAAUUUUUUUACUAGUAGAACGCAACAGUAAAAAGAAUUAACAGCAGUGAAUUAUUAGUUAAUUAGCUAGGGAGUUGAAAUAGUUUAGCGGUCAUGCACUACUGAUUUUUAAUUAGUGCAGACAACGACCGCGUGUGUGUAUAUGCAUGUAUACCUUUUACUGUAUCUUCAGAUUGUGUAUAUAUAUCAUAUAUGUACAGGAAAAGAUUUAUAUAUCAUACAUAUUUUGUUGU [OsNCED4 3'-UTR RNA]
  binding: binds
